Source: publication PMC6771872, “Fast‐acting insulin aspart in people with type 2 diabetes: Earlier onset and greater initial exposure and glucose‐lowering effect compared with insulin aspart” (Diabetes, Obesity & Metabolism, 2019)

What was measured:
Type in all cases: in vivo, human
[1] = tested on: people with type 2 diabetes; experiment: Safety assessments (adverse events, hypoglycaemic episodes, injection site reactions); conditions: single s.c. 0.3 U/kg
Source text: Safety assessments included adverse events (AEs), hypoglycaemic episodes, injection site reactions, laboratory safety measures, physical examination, vital signs and ECG. AEs were defined as treatment‐emergent if they had onset within the period from time of trial product administration until 7 days later. Hypoglycaemic episodes were classified according to the American Diabetes Association12 and in addition defined as “confirmed” if documented by PG <3.1 mmol/L with or without symptoms consistent with hypoglycaemia. Hypoglycaemic episodes were defined as treatment‐emergent if they had onset between the time of trial product administration and the subsequent administration of any insulin; however, these should occur no longer than 16 hours after trial product administration.

[2] = tested on: people with type 2 diabetes; experiment: Suppression of serum free fatty acid (FFA) concentration after dosing; conditions: people with T2D, single s.c. 0.3 U/kg
Experimental: Serum free fatty acid (FFA) concentrations were measured using a Wako NEFA assay (Wako Diagnostics, Mountain View, California), performed on a Roche Cobas C501 analyser (Roche Diagnostics GmbH, Mannheim, Germany).
The suppression of serum FFA concentration initially after dosing was determined by calculating the area over the baseline‐corrected serum FFA concentration‐time curve during the first hour (ΔAOCFFA,0‐1 h) and the first 2 hours (ΔAOCFFA,0‐2 h) as well as the time to reach 50% of the maximum FFA decline in the initial part of the FFA profile (t50% max FFA decline). Furthermore, the minimum FFA concentration (FFAmin) was derived.
Statistical analyses were performed using SAS version 9.4 (SAS Institute, Cary, North Carolina). All endpoints were compared between faster aspart and IAsp using a linear mixed model, with treatment and period as fixed effects and participant as a random effect. The P value for the two‐sided test of no treatment difference using a significance level of 5% was estimated from the model. For FFA endpoints, baseline FFA was included as a covariate. […] Least squares means for each treatment, treatment ratios and 95% confidence intervals (CIs) were calculated on the original scale. All other endpoints were analysed on a linear scale: least squares means for each treatment, treatment differences and 95% CIs were estimated. Treatment ratios and 95% CIs were determined according to Fieller's method.14

[3] = tested on: people with type 2 diabetes; experiment: Euglycaemic glucose clamp, glucose infusion rate (glucose-lowering effect); conditions: people with T2D, single s.c. 0.3 U/kg, n = 56 faster aspart, 59 IAsp
Experimental: Participants arrived at the clinical site at 4:30 PM the day before dosing, were served a standardized meal and started fasting from 7:00 PM. In order to assess the pharmacodynamics of faster aspart and IAsp, a euglycaemic glucose clamp was conducted with an overnight run‐in period starting at 10:00 PM. Participants received a variable intravenous infusion of human insulin [40 IU Actrapid® 100 IU/mL (Novo Nordisk) in 99.6 mL saline] or 20% glucose to obtain the plasma glucose (PG) target concentration of 5.0 mmol/L. The trial product was administered between 8:00 AM and 10:00 AM the next morning after PG had stabilized for ≥1 hour with minimum insulin infusion and no glucose infusion. At the time of dosing, any infusion of intravenous insulin was terminated. After PG had declined by 0.3 mmol/L (defined as onset of action), a variable intravenous glucose infusion was initiated to keep PG at the target throughout the clamp. The clamp continued for up to 12 hours after dosing, but was terminated if PG was consistently ≥11.1 mmol/L, with no requirement for intravenous glucose infusion during the previous 30 minutes. The individual clamps were performed with similar high quality across both treatments (Figure S1 and Table S1 in Appendix S1).11
Measurement of PG concentrations during the glucose clamp was performed with a SuperGL 2 glucose analyser (Dr Müller Gerätebau GmbH, Freital, Germany) using an electrochemical method.
(§1) All pharmacokinetic and glucose infusion rate (GIR) endpoints to assess onset of exposure and glucose‐lowering effect, initial IAsp exposure and glucose‐lowering effect, offset of exposure and glucose‐lowering effect, and overall exposure and glucose‐lowering effect were defined and derived as previously described.5 In a blinded review of pharmacokinetic profiles, it was observed that selected profiles had pre‐dose values above the LLOQ and stayed above the LLOQ for the entire sampling period. It was therefore decided to baseline‐correct these profiles using a baseline value derived as the mean of all pre‐dose samples. After baseline correction, all pre‐dose values and negative values were set to zero. All pharmacokinetic endpoints for the baseline‐corrected profiles were derived in the same way as those for the non‐baseline‐corrected profiles.

[4] = Serum IAsp pharmacokinetics after single subcutaneous dose (IAsp-specific ELISA); conditions: people with T2D, single s.c. 0.3 U/kg, 59 IAsp
Source text: At the two dosing visits, participants received single dosing of 0.3 U/kg faster aspart (100 U/mL; Novo Nordisk, Bagsværd, Denmark) or IAsp (NovoRapid® 100 U/mL; Novo Nordisk) in a randomized sequence. Both trial products were provided in blinded PDS290 pen‐injector prefilled pens (Novo Nordisk) and administered subcutaneously in a lifted skin fold of the lower abdominal wall above the inguinal area. Use of current insulin was terminated in due time to allow washout before faster aspart and IAsp administration.
Blood sampling for pharmacokinetics was performed frequently from 2 minutes prior to dosing until 12 hours post‐dose (Table S2 in Appendix S1).
A validated IAsp‐specific enzyme‐linked immunosorbent assay with a lower limit of quantification (LLOQ) of 10 pmol/L was used to measure free serum IAsp concentrations following polyethylene glycol precipitation.
as §1

[5] = LS mean ± SE, n = 56 faster aspart, 58 IAsp
[6] = euglycaemic clamp, LS mean ± SE

## insulin aspart [IAsp]
[1]; people with T2D
  Injection site reactions or treatment-emergent hypoglycaemic episodes: no injection site reactions or treatment‐emergent hypoglycaemic episodes were reported
  Tolerability: well tolerated
[1]; safety analysis set 61 participants with T2D, onset within 7 days of dosing
  Number of treatment-emergent AEs: 11
[2]; [5]
  t50% max FFA decline (time to reach 50% of the maximum decline in FFA): 50.0 ± 2.3 min
  ΔAOCFFA,0-1 h (area over the baseline-corrected FFA curve, first hour): 0.09 ± 0.01 mmol·h/L
  ΔAOCFFA,0-2 h (area over the baseline-corrected FFA curve, first 2 hours): 0.38 ± 0.02 mmol·h/L
[2]; mean ± spread as printed
  Mean minimum FFA concentration (FFAmin): 0.08 ± 0.05 mmol/L
[3]; offset of glucose-lowering effect, LS mean
  tLate 50% GIRmax (time to 50% of maximum GIR in the late part of the GIR profile): 297.7 min
[3]; clamp up to 12 hours, LS mean
  AUCGIR,0-t (total glucose-lowering effect): 904 mg/kg
[3]; euglycaemic clamp target 5.0 mmol/L, LS mean ± SE
  Onset of action (PG decline by 0.3 mmol/L): 31.3 ± 1.4 min
[3]; [6]
  tEarly 50% GIRmax (time to 50% of maximum GIR in the initial part of the GIR profile): 51.1 ± 2.3 min
  tGIRmax (time to maximum glucose infusion rate): 155.6 ± 8.7 min
[3]; euglycaemic clamp, LS mean
  AUCGIR,0-30min LS Mean: 7.0 mg/kg
  AUCGIR,0-1h LS Mean: 67 mg/kg
  AUCGIR,0-1.5h LS Mean: 127 mg/kg
  AUCGIR,0-2h LS Mean: 210 mg/kg
[3]; LS mean
  AUCGIR,2-t (partial area under the GIR profile from 2 hours): 681 mg/kg
  GIRmax (maximum glucose infusion rate): 3.9 mg/kg/min
[4]; offset of exposure, LS mean, n = 56 faster aspart
  tLate 50% Cmax (time to 50% of maximum IAsp concentration in the late part of the PK profile): 237.8 min
[4]; free serum IAsp by ELISA, LS mean ± SE, n = 56 faster aspart
  Onset of appearance: 4.4 ± 0.3 min
[4]; sampling until 12 hours, LS mean, n = 56 faster aspart
  AUCIAsp,0-t (total IAsp exposure): 1.403 nM·h
[4]; LS mean ± SE, n = 55 faster aspart
  tmax (time to maximum IAsp concentration): 1.45 ± 0.0867 h
[4]; LS mean ± SE, n = 56 faster aspart
  tEarly 50% Cmax (time to 50% of maximum IAsp concentration in the initial part of the PK profile): 27.9 ± 1.0 min
[4]; LS mean, n = 56 faster aspart
  AUCIAsp,0-15min LS Mean: 0.0074 nM·h
  AUCIAsp,0-1h LS Mean: 0.189 nM·h
  AUCIAsp,0-1.5h LS Mean: 0.355 nM·h
  AUCIAsp,0-2h LS Mean: 0.516 nM·h
  AUCIAsp,2-t (partial area under the serum IAsp profile from 2 hours): 0.841 nM·h
  Cmax (maximum IAsp concentration): 0.384 nM
[4]; primary endpoint, LS mean, n = 56 faster aspart
  AUCIAsp,0-30min LS Mean: 0.042 nM·h
